Source: patent US11491206 (DUKE UNIVERSITY, dated 2022)

Target: T1, death receptor 5 (DR5) (UniProt O14763 56-182, limits assumed)
T1 construct: also called TRAIL Receptor 2; TRAILR2
Assay: not stated (told in the legend of the schematic FIG. 1A)

T1 sequence (O14763 56-182 limits assumed): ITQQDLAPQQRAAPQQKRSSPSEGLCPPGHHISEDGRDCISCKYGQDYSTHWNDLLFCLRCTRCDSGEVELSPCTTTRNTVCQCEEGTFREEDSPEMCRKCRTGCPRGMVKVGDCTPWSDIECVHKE

B1: DRA monomer (single Tn3 type III fibronectin domain of tenascin engineered to bind death receptor 5) (designed binder)
chain: GAIEVKDVTDTTALITWAKPWVDPPPLWGCELTYGIKDVPGDRTTIDLQQKHTAYSIGNLKPDTEYEVSLICFDPYGMRSKPAKETFTT
notes: also called Tn3 monomer; monomer of the Tn3 domain
Work on B1 yielded a Kd of 43 nM.
